Assay results published in patent US20110166062A1 (INDIANA UNIVERSITY RESEARCH AND TECHNOLOGY, published 2011).
Bridges are numbered along the chain shown (N, C = ends). Where no end group is shown, it is not given here. [ ]: non-standard residue; d: D form. Aib = CC(C)(N)C(=O)O

T1: GIP receptor (UniProt P48546 22-466)
T1 sequence (looked up): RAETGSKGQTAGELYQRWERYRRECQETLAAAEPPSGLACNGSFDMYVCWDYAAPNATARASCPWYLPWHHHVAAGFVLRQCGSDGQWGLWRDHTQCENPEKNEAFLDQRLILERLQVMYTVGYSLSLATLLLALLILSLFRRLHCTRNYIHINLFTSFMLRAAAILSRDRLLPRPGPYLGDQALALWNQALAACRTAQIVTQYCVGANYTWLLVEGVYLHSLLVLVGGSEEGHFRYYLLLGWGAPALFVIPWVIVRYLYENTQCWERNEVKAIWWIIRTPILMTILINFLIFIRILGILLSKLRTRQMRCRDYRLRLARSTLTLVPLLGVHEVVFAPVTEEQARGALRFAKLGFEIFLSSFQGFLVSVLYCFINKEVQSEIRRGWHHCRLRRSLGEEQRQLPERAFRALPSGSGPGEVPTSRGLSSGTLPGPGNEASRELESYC


Columns and labels:
Assay in all cases: cell-based or functional assay
glucagon receptor = glucagon receptor (UniProt P47871 26-477, limits assumed)
Chain of glucagon receptor (P47871 26-477 limits assumed): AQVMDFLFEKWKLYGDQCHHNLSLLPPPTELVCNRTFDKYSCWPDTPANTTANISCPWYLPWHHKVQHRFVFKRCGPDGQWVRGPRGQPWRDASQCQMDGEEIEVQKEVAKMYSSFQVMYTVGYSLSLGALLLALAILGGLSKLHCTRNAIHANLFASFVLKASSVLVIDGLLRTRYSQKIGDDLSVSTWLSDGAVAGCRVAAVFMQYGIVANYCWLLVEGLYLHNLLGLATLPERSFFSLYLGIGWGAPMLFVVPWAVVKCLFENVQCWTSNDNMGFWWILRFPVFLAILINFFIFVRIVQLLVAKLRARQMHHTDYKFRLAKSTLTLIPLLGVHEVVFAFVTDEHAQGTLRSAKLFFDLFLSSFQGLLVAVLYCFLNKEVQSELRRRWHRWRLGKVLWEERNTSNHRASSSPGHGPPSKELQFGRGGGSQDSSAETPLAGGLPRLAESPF

GLP-1 receptor = GLP-1 receptor (UniProt P43220 24-463, limits assumed)
GIP receptor = molecular target: T1, GIP receptor

Row | Binder | EC50 (glucagon receptor) | relative activity (glucagon receptor) | EC50 (GLP-1 receptor) | relative activity (GLP-1 receptor) | EC50 (GIP receptor) | relative activity (GIP receptor)
1 | YAEGTFTSDYSIYLDEQAAKEFVNWLLAGGPSSGAPPPS-NH2 (lactam 16-20; N-terminus assumed; SMILES CC[C@H](C)[C@H](NC(=O)[C@H](CO)NC(=O)[C@H](Cc1ccc(O)cc1)NC(=O)[C@H](CC(=O)O)NC(=O)[C@H](CO)NC(=O)[C@@H](NC(=O)[C@H](Cc1ccccc1)NC(=O)[C@@H](NC(=O)CNC(=O)[C@H](CCC(=O)O)NC(=O)[C@H](C)NC(=O)[C@@H](N)Cc1ccc(O)cc1)[C@@H](C)O)[C@@H](C)O)C(=O)N[C@@H](Cc1ccc(O)cc1)C(=O)N[C@@H](CC(C)C)C(=O)N[C@@H](CC(=O)O)C(=O)N[C@H]1CCC(=O)NCCCC[C@@H](C(=O)N[C@@H](CCC(=O)O)C(=O)N[C@@H](Cc2ccccc2)C(=O)N[C@H](C(=O)N[C@@H](CC(N)=O)C(=O)N[C@@H](Cc2c[nH]c3ccccc23)C(=O)N[C@@H](CC(C)C)C(=O)N[C@@H](CC(C)C)C(=O)N[C@@H](C)C(=O)NCC(=O)NCC(=O)N2CCC[C@H]2C(=O)N[C@@H](CO)C(=O)N[C@@H](CO)C(=O)NCC(=O)N[C@@H](C)C(=O)N2CCC[C@H]2C(=O)N2CCC[C@H]2C(=O)N2CCC[C@H]2C(=O)N[C@@H](CO)C(N)=O)C(C)C)NC(=O)[C@H](C)NC(=O)[C@H](C)NC(=O)[C@H](CCC(N)=O)NC1=O) [mt-149] | 16.3 nM | 0.64% | 0.036 nM | 97.5% | 0.068 nM | 91.2%
2 | Y[Aib]QGTFTSDYSIYLDEQAAKEFVNWLLAGGPSSGAPPPS-NH2 (lactam 16-20; N-terminus assumed; SMILES CC[C@H](C)[C@H](NC(=O)[C@H](CO)NC(=O)[C@H](Cc1ccc(O)cc1)NC(=O)[C@H](CC(=O)O)NC(=O)[C@H](CO)NC(=O)[C@@H](NC(=O)[C@H](Cc1ccccc1)NC(=O)[C@@H](NC(=O)CNC(=O)[C@H](CCC(N)=O)NC(=O)C(C)(C)NC(=O)[C@@H](N)Cc1ccc(O)cc1)[C@@H](C)O)[C@@H](C)O)C(=O)N[C@@H](Cc1ccc(O)cc1)C(=O)N[C@@H](CC(C)C)C(=O)N[C@@H](CC(=O)O)C(=O)N[C@H]1CCC(=O)NCCCC[C@@H](C(=O)N[C@@H](CCC(=O)O)C(=O)N[C@@H](Cc2ccccc2)C(=O)N[C@H](C(=O)N[C@@H](CC(N)=O)C(=O)N[C@@H](Cc2c[nH]c3ccccc23)C(=O)N[C@@H](CC(C)C)C(=O)N[C@@H](CC(C)C)C(=O)N[C@@H](C)C(=O)NCC(=O)NCC(=O)N2CCC[C@H]2C(=O)N[C@@H](CO)C(=O)N[C@@H](CO)C(=O)NCC(=O)N[C@@H](C)C(=O)N2CCC[C@H]2C(=O)N2CCC[C@H]2C(=O)N2CCC[C@H]2C(=O)N[C@@H](CO)C(N)=O)C(C)C)NC(=O)[C@H](C)NC(=O)[C@H](C)NC(=O)[C@H](CCC(N)=O)NC1=O) [mt-152] | 0.293 nM | 36.5% | 0.016 nM | 169% | 0.087 nM | 41.2%
3 | YSQGTFTSDYSIYLDEQAAKEFIAWLLAGGPSSGAPPPS-NH2 (lactam 16-20; N-terminus assumed; SMILES CC[C@H](C)[C@H](NC(=O)[C@H](Cc1ccccc1)NC(=O)[C@H](CCC(=O)O)NC(=O)[C@@H]1CCCCNC(=O)CC[C@H](NC(=O)[C@H](CC(=O)O)NC(=O)[C@H](CC(C)C)NC(=O)[C@H](Cc2ccc(O)cc2)NC(=O)[C@@H](NC(=O)[C@H](CO)NC(=O)[C@H](Cc2ccc(O)cc2)NC(=O)[C@H](CC(=O)O)NC(=O)[C@H](CO)NC(=O)[C@@H](NC(=O)[C@H](Cc2ccccc2)NC(=O)[C@@H](NC(=O)CNC(=O)[C@H](CCC(N)=O)NC(=O)[C@H](CO)NC(=O)[C@@H](N)Cc2ccc(O)cc2)[C@@H](C)O)[C@@H](C)O)[C@@H](C)CC)C(=O)N[C@@H](CCC(N)=O)C(=O)N[C@@H](C)C(=O)N[C@@H](C)C(=O)N1)C(=O)N[C@@H](C)C(=O)N[C@@H](Cc1c[nH]c2ccccc12)C(=O)N[C@@H](CC(C)C)C(=O)N[C@@H](CC(C)C)C(=O)N[C@@H](C)C(=O)NCC(=O)NCC(=O)N1CCC[C@H]1C(=O)N[C@@H](CO)C(=O)N[C@@H](CO)C(=O)NCC(=O)N[C@@H](C)C(=O)N1CCC[C@H]1C(=O)N1CCC[C@H]1C(=O)N1CCC[C@H]1C(=O)N[C@@H](CO)C(N)=O) [mt-147] | 0.116 nM | 90.5% | 0.105 nM | 33.9% | 0.144 nM | 43.1%
4 | YSEGTFTSDYSIYLDEQAAKEFIAWLLAGGPSSGAPPPS-NH2 (lactam 16-20; N-terminus assumed; SMILES CC[C@H](C)[C@H](NC(=O)[C@H](Cc1ccccc1)NC(=O)[C@H](CCC(=O)O)NC(=O)[C@@H]1CCCCNC(=O)CC[C@H](NC(=O)[C@H](CC(=O)O)NC(=O)[C@H](CC(C)C)NC(=O)[C@H](Cc2ccc(O)cc2)NC(=O)[C@@H](NC(=O)[C@H](CO)NC(=O)[C@H](Cc2ccc(O)cc2)NC(=O)[C@H](CC(=O)O)NC(=O)[C@H](CO)NC(=O)[C@@H](NC(=O)[C@H](Cc2ccccc2)NC(=O)[C@@H](NC(=O)CNC(=O)[C@H](CCC(=O)O)NC(=O)[C@H](CO)NC(=O)[C@@H](N)Cc2ccc(O)cc2)[C@@H](C)O)[C@@H](C)O)[C@@H](C)CC)C(=O)N[C@@H](CCC(N)=O)C(=O)N[C@@H](C)C(=O)N[C@@H](C)C(=O)N1)C(=O)N[C@@H](C)C(=O)N[C@@H](Cc1c[nH]c2ccccc12)C(=O)N[C@@H](CC(C)C)C(=O)N[C@@H](CC(C)C)C(=O)N[C@@H](C)C(=O)NCC(=O)NCC(=O)N1CCC[C@H]1C(=O)N[C@@H](CO)C(=O)N[C@@H](CO)C(=O)NCC(=O)N[C@@H](C)C(=O)N1CCC[C@H]1C(=O)N1CCC[C@H]1C(=O)N1CCC[C@H]1C(=O)N[C@@H](CO)C(N)=O) [mt-148] | 4.91 nM | 2.14% | 0.098 nM | 36.2% | 0.095 nM | 65.3%
5 | YSQGTFTSDYSIYLDEQAAKEFVEWLLAGGPSSGAPPPS-NH2 (lactam 20-24; N-terminus assumed; SMILES CC[C@H](C)[C@H](NC(=O)[C@H](CO)NC(=O)[C@H](Cc1ccc(O)cc1)NC(=O)[C@H](CC(=O)O)NC(=O)[C@H](CO)NC(=O)[C@@H](NC(=O)[C@H](Cc1ccccc1)NC(=O)[C@@H](NC(=O)CNC(=O)[C@H](CCC(N)=O)NC(=O)[C@H](CO)NC(=O)[C@@H](N)Cc1ccc(O)cc1)[C@@H](C)O)[C@@H](C)O)C(=O)N[C@@H](Cc1ccc(O)cc1)C(=O)N[C@@H](CC(C)C)C(=O)N[C@@H](CC(=O)O)C(=O)N[C@@H](CCC(=O)O)C(=O)N[C@@H](CCC(N)=O)C(=O)N[C@@H](C)C(=O)N[C@@H](C)C(=O)N[C@H]1CCCCNC(=O)CC[C@@H](C(=O)N[C@@H](Cc2c[nH]c3ccccc23)C(=O)N[C@@H](CC(C)C)C(=O)N[C@@H](CC(C)C)C(=O)N[C@@H](C)C(=O)NCC(=O)NCC(=O)N2CCC[C@H]2C(=O)N[C@@H](CO)C(=O)N[C@@H](CO)C(=O)NCC(=O)N[C@@H](C)C(=O)N2CCC[C@H]2C(=O)N2CCC[C@H]2C(=O)N2CCC[C@H]2C(=O)N[C@@H](CO)C(N)=O)NC(=O)[C@H](C(C)C)NC(=O)[C@H](Cc2ccccc2)NC(=O)[C@H](CCC(=O)O)NC1=O) [mt-156] | 2.96 nM | 6.1% | 0.246 nM | 12.2% | 0.919 nM | 4.41%
6 | YSQGTFISDYSIYLDEQAAKEFVNWLLAGGPSSGAPPPS-NH2 (lactam 16-20; N-terminus assumed; SMILES CC[C@H](C)[C@H](NC(=O)[C@H](CO)NC(=O)[C@H](Cc1ccc(O)cc1)NC(=O)[C@H](CC(=O)O)NC(=O)[C@H](CO)NC(=O)[C@@H](NC(=O)[C@H](Cc1ccccc1)NC(=O)[C@@H](NC(=O)CNC(=O)[C@H](CCC(N)=O)NC(=O)[C@H](CO)NC(=O)[C@@H](N)Cc1ccc(O)cc1)[C@@H](C)O)[C@@H](C)CC)C(=O)N[C@@H](Cc1ccc(O)cc1)C(=O)N[C@@H](CC(C)C)C(=O)N[C@@H](CC(=O)O)C(=O)N[C@H]1CCC(=O)NCCCC[C@@H](C(=O)N[C@@H](CCC(=O)O)C(=O)N[C@@H](Cc2ccccc2)C(=O)N[C@H](C(=O)N[C@@H](CC(N)=O)C(=O)N[C@@H](Cc2c[nH]c3ccccc23)C(=O)N[C@@H](CC(C)C)C(=O)N[C@@H](CC(C)C)C(=O)N[C@@H](C)C(=O)NCC(=O)NCC(=O)N2CCC[C@H]2C(=O)N[C@@H](CO)C(=O)N[C@@H](CO)C(=O)NCC(=O)N[C@@H](C)C(=O)N2CCC[C@H]2C(=O)N2CCC[C@H]2C(=O)N2CCC[C@H]2C(=O)N[C@@H](CO)C(N)=O)C(C)C)NC(=O)[C@H](C)NC(=O)[C@H](C)NC(=O)[C@H](CCC(N)=O)NC1=O) [mt-150] | 0.036 nM | 317% | 3.47 nM | 1.09% | 0.232 nM | 26.7%
